From patent US20080044421A1 come the findings set out here.

This experiment concerns the target CD20 (human) (UniProt P11836). Nature of the experiment: FACS on Ramos, Daudi, Raji and BJAB B lymphoma cells; range over four cell lines.
Sequence of UniProt P11836 (P11836 whole entry): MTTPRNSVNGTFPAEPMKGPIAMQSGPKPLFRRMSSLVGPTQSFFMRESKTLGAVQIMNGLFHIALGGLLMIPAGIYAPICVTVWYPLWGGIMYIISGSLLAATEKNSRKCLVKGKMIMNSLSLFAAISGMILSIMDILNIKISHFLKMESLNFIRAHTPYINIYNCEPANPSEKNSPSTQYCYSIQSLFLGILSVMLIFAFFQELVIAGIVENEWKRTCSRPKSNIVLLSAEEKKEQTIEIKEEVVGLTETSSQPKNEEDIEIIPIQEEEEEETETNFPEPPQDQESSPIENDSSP

Turning to “RITUXAN (rituximab), monoclonal antibody specific for CD20”, the mean fluorescence shift was in the range of 5 to 15 units.
